The record followed here is paper PMC5787697, “Transcriptome-wide identification of the RNA-binding landscape of the chromatin-associated protein PARP1 reveals functions in RNA biogenesis”.

The target in data set [1] is T1, PARP1-FL (human, UniProt P09874 1-1014). Nature of the data set: EMSA; monomer-equivalent K, n=2.17±0.15; 25 mM Tris pH 7.5, 75 mM NaCl, 50 mM arginine, 0.1 mM TCEP, 0.1 ug/ul BSA, room temperature 30 min; 0.05 uM probe, 0-2.5 uM protein; native 10% PAGE in TBE. To be noted: protein: recombinant; tags: His; chain copies: 2; label: 32P; single strand. In general terms: A gel shift assay detects complexes by their altered migration in electrophoresis.

For data set [2], the target named is T2, PARP1-ΔCAT (human, UniProt P09874 1-662). Nature of the data set: EMSA; monomer-equivalent K, n=2.77±0.13; 25 mM Tris pH 7.5, 75 mM NaCl, 50 mM arginine, 0.1 mM TCEP, 0.1 ug/ul BSA, room temperature 30 min; 0.05 uM probe, 0-2.5 uM protein; native 10% PAGE in TBE. To be noted: protein: recombinant; tags: His; chain copies: 2; label: 32P; single strand.
In data set [3] the target is T3, PARP1-ΔZn1ΔZn2 (human, UniProt P09874 216-1014). Nature of the data set: EMSA; monomer-equivalent K, n=2.16±0.19; 25 mM Tris pH 7.5, 75 mM NaCl, 50 mM arginine, 0.1 mM TCEP, 0.1 ug/ul BSA, room temperature 30 min; 0.05 uM probe, 0-2.5 uM protein; native 10% PAGE in TBE. To be noted: protein: recombinant; tags: His; chain copies: 2; label: 32P; single strand.
Data set [4] concerns the target T3, PARP1-ΔZn1ΔZn2. Nature of the data set: EMSA; monomer-equivalent K, n=2.04±0.15; 25 mM Tris pH 7.5, 75 mM NaCl, 50 mM arginine, 0.1 mM TCEP, 0.1 ug/ul BSA, room temperature 30 min; 0.05 uM probe, 0-2.5 uM protein; native 10% PAGE in TBE. To be noted: protein: recombinant; tags: His; chain copies: 2; label: 32P; single strand.
Data set [5] addresses T2, PARP1-ΔCAT. Kind of data set: EMSA; monomer-equivalent K, n=2.04±0.13; 25 mM Tris pH 7.5, 75 mM NaCl, 50 mM arginine, 0.1 mM TCEP, 0.1 ug/ul BSA, room temperature 30 min; 0.05 uM probe, 0-2.5 uM protein; native 10% PAGE in TBE. The conditions noted are these: protein: recombinant; tags: His; chain copies: 2; label: 32P; single strand.
Data set [6] deals with T1, PARP1-FL. Kind of data set: EMSA; monomer-equivalent K, n=1.70±0.14; 25 mM Tris pH 7.5, 75 mM NaCl, 50 mM arginine, 0.1 mM TCEP, 0.1 ug/ul BSA, room temperature 30 min; 0.05 uM probe, 0-2.5 uM protein; native 10% PAGE in TBE. To be noted: protein: recombinant; tags: His; chain copies: 2; label: 32P; single strand.
Data set [7] concerns the target T1, PARP1-FL. Nature of the data set: competition EMSA; vs N1 in same reaction; 25 mM Tris pH 7.5, 75 mM NaCl, 50 mM arginine, 0.1 mM TCEP, 0.1 ug/ul BSA, room temperature 30 min; 0.05 uM probe, 0-2.5 uM protein; native 10% PAGE in TBE. The conditions noted are these: protein: recombinant; tags: His; label: 32P; single strand.
In data set [8] the target is T2, PARP1-ΔCAT. The data set is described as above. The conditions noted are these: protein: recombinant; tags: His; chain copies: 2; label: 32P; single strand.
Data set [9] deals with T3, PARP1-ΔZn1ΔZn2. Described as above. To be noted: protein: recombinant; tags: His; chain copies: 2; label: 32P; single strand.

T2 sequence (P09874 1-662, stated change not applied): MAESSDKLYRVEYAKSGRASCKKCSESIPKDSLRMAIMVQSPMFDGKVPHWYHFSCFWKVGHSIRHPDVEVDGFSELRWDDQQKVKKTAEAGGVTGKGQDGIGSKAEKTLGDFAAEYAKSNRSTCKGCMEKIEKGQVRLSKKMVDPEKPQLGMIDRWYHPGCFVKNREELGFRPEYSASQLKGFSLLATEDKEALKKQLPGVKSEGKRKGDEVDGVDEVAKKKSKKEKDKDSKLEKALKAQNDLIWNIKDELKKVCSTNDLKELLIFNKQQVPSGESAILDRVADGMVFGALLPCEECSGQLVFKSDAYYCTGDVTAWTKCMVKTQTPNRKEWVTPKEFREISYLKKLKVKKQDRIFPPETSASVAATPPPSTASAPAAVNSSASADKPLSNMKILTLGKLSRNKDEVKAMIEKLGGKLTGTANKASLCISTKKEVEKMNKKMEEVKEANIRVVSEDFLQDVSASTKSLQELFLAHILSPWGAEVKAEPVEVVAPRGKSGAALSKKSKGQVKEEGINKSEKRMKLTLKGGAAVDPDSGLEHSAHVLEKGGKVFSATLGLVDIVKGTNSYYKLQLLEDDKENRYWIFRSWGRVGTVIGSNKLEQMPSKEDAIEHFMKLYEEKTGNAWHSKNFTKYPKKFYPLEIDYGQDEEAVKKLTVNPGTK
T1 sequence (P09874 whole entry): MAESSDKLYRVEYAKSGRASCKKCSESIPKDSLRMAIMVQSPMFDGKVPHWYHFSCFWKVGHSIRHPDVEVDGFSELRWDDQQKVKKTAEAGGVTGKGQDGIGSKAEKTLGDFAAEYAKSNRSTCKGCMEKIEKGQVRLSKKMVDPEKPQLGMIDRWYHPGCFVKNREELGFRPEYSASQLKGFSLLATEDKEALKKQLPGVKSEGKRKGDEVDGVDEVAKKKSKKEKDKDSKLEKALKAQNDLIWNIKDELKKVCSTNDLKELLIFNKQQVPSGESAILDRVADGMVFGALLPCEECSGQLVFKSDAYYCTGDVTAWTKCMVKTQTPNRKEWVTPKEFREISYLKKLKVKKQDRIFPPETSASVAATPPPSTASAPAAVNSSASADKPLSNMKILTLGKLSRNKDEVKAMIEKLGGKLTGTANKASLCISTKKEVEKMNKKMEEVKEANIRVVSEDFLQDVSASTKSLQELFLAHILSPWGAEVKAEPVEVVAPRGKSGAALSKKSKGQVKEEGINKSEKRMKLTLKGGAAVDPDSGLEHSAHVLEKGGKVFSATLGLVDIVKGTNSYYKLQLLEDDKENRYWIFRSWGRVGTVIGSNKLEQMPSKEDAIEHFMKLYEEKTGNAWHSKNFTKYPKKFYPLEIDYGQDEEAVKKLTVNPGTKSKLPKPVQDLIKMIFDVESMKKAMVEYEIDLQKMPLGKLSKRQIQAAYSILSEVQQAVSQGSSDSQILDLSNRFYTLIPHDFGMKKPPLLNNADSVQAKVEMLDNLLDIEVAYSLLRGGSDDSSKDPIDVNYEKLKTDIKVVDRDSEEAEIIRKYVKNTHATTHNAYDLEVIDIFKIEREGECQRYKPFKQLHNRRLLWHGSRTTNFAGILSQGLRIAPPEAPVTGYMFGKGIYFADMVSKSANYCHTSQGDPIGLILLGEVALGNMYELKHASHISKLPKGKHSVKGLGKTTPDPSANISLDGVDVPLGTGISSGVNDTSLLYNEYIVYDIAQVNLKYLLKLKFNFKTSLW
T3 sequence (P09874 216-1014, stated change not applied): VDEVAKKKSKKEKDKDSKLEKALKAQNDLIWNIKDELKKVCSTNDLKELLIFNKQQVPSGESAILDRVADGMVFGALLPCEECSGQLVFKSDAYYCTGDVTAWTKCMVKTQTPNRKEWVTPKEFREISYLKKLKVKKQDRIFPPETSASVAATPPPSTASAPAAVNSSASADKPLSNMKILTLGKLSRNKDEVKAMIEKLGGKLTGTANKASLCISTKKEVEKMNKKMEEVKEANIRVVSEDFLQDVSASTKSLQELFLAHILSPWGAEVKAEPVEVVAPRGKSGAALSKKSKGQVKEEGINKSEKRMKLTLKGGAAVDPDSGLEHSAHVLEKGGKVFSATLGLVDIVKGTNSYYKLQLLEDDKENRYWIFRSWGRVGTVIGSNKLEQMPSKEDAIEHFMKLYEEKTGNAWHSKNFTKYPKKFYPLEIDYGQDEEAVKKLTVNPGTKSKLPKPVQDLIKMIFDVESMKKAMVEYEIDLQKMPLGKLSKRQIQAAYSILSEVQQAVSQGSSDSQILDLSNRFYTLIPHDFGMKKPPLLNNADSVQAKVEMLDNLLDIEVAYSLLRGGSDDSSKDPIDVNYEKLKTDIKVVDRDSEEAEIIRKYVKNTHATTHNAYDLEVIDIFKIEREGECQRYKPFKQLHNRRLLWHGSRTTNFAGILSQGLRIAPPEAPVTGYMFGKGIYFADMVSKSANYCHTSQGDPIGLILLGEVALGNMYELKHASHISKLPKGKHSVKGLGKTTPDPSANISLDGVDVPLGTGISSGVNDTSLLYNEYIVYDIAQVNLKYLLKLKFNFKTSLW

B1: 24-mer ssRNA (ssRNA)
RNA: CGUACGCGGAAUAGUUUAAACUGU
Turning to B1, the Ka with PARP1-FL [1] was found to be 2.88e+06 M⁻¹; with PARP1-ΔCAT [2], 2.91e+06 M⁻¹; in the data set with PARP1-ΔZn1ΔZn2 [3], 1.91e+06 M⁻¹.

B2: 20-mer ssRNA (ssRNA)
RNA: CCGUACGCGGGUUUAAACGA
Consider B2, for which the figures for the Ka with PARP1-ΔZn1ΔZn2 [4], with PARP1-ΔCAT [5] and with PARP1-FL [6] were 1.13e+06 M⁻¹, 770000 M⁻¹ and 2.43e+06 M⁻¹, respectively.

B3: 19-mer ssDNA (ssDNA)
DNA: TAGGCACCGGCATCTTGAC
Consider B3, for which the binding signal with PARP1-FL [7] turned out to be 25.3 ± 3 KDNA/KRNA; in the data set with PARP1-ΔCAT [8], 15.7 ± 3.9 KDNA/KRNA; with PARP1-ΔZn1ΔZn2 [9], 0.0153 ± 0.021 KDNA/KRNA.
